The values below come from paper PMC9108626, “Mammalian UPF3A and UPF3B can activate nonsense‐mediated mRNA decay independently of their exon junction complex binding” (The EMBO Journal, 2022).

Holding throughout (conditions): partners not purified
Experiment [1] deals with T1, EIF4A3 (endogenous, HCT116) (human (endogenous in HCT116), UniProt P38919 1-411).
T1 construct: EIF4A3, human, core factor of the exon junction complex, endogenous in HCT116 cells; also called core EJC factor EIF4A3; source: endogenous, HCT116 lysate
Nature of the experiment: co-IP; EIF4A3-IP from 3^DKO#2 HCT116 cells stably expressing FLAG-tagged UPF3 proteins, UPF3A chimeras or EGFP; FLAG-tagged proteins quantified against EIF4A3; immunoblot.

For experiment [2], the target named is T1, EIF4A3 (endogenous, HCT116). Nature of the experiment: co-IP; EIF4A3-IP (antibody on protein-A Dynabeads; normal rabbit IgG as control) from WT and UPF3B mutant (3B^Δ2BD, 3B^KO) HCT116 lysates; 4°C, washes with 150 mM NaCl; immunoblot. In general terms: Immunoblotting shows a protein as a band on a membrane.
The target of experiment [3] is T2, EIF4A3 (endogenous, HeLa Tet‐off) (human (endogenous in HeLa), UniProt P38919 1-411).
T2 construct: EIF4A3, human, endogenous in HeLa Tet-off cells; also called EJC; source: endogenous, lysate of HeLa Tet-off and 3B^KO#3 HeLa Tet-off cells
Kind of experiment: co-IP; EIF4A3-IP (IgG-IP as control) from HeLa Tet-off cells and 3B^KO#3 HeLa Tet-off cells, with overexpression of CASC3 wild type or the HDAA mutant; immunoblot.

T2 sequence (P38919 whole entry): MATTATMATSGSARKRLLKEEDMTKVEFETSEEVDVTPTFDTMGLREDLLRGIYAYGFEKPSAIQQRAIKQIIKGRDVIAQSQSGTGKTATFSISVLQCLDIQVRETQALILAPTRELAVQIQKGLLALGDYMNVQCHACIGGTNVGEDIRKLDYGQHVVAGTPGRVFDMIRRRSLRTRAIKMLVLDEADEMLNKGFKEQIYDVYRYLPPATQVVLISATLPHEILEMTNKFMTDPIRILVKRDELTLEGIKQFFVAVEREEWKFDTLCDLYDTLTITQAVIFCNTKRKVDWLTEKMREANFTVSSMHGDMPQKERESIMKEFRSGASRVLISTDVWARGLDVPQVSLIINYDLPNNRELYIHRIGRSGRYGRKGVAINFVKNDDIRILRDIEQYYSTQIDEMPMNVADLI
T1 sequence (P38919 whole entry): as above

B1: FLAG‐tagged human UPF3A (stably expressed in 3^DKO#2 cells) (natural protein, UniProt Q9H1J1 1-476, looked up)
chain: MRSEKEGAGGLRAAVAARGPSGREKLSALEVQFHRDSQQQEAETPPTSSSGCGGGAGKPREEKRTALSKVVIRRLPPGLTKEQLEEQLRPLPAHDYFEFFAADLSLYPHLYSRAYINFRNPDDILLFRDRFDGYIFLDSKGLEYPAVVEFAPFQKIAKKKLRKKDAKTGSIEDDPEYKKFLETYCVEEEKTSANPETLLGEMEAKTRELIARRTTPLLEYIKNRKLEKQRIREEKREERRRRELEKKRLREEEKRRRREEERCKKKETDKQKKIAEKEVRIKLLKKPEKGEEPTTEKPKERGEEIDTGGGKQESCAPGAVVKARPMEGSLEEPQETSHSGSDKEHRDVERSQEQESEAQRYHVDDGRRHRAHHEPERLSRRSEDEQRWGKGPGQDRGKKGSQDSGAPGEAMERLGRAQRCDDSPAPRKERLANKDRPALQLYDPGARFRARECGGNRRICKAEGSGTGPEKREEAE
notes: UPF3A, human, CCDS9543.1; wild type; domains are defined over residues 2-476; cloned in pcDNA3ez-FLAG and moved to a Tet-ON PiggyBac plasmid; also called hUPF3A; FLAG‐UPF3A
B1: the “fold weaker co-IP against UPF3B” value in experiment [1] is about 3 fold.

B2: UPF3A (endogenous, HCT116) (natural protein, human (endogenous in HCT116), UniProt Q9H1J1 1-476, looked up)
chain: MRSEKEGAGGLRAAVAARGPSGREKLSALEVQFHRDSQQQEAETPPTSSSGCGGGAGKPREEKRTALSKVVIRRLPPGLTKEQLEEQLRPLPAHDYFEFFAADLSLYPHLYSRAYINFRNPDDILLFRDRFDGYIFLDSKGLEYPAVVEFAPFQKIAKKKLRKKDAKTGSIEDDPEYKKFLETYCVEEEKTSANPETLLGEMEAKTRELIARRTTPLLEYIKNRKLEKQRIREEKREERRRRELEKKRLREEEKRRRREEERCKKKETDKQKKIAEKEVRIKLLKKPEKGEEPTTEKPKERGEEIDTGGGKQESCAPGAVVKARPMEGSLEEPQETSHSGSDKEHRDVERSQEQESEAQRYHVDDGRRHRAHHEPERLSRRSEDEQRWGKGPGQDRGKKGSQDSGAPGEAMERLGRAQRCDDSPAPRKERLANKDRPALQLYDPGARFRARECGGNRRICKAEGSGTGPEKREEAE
notes: UPF3A, human, endogenous in HCT116 cells; source: endogenous, HCT116 lysate (WT, 3B^Δ2BD, 3B^KO cells)
As for B2, in experiment [2], the “fold increase of co-IP in UPF3B mutant cells over WT cells” value was about 2 fold.

B3: UPF3A (endogenous, UPF3B knockout HeLa Tet‐off) (natural protein, human (endogenous in HeLa), UniProt Q9H1J1 1-476, looked up)
chain: MRSEKEGAGGLRAAVAARGPSGREKLSALEVQFHRDSQQQEAETPPTSSSGCGGGAGKPREEKRTALSKVVIRRLPPGLTKEQLEEQLRPLPAHDYFEFFAADLSLYPHLYSRAYINFRNPDDILLFRDRFDGYIFLDSKGLEYPAVVEFAPFQKIAKKKLRKKDAKTGSIEDDPEYKKFLETYCVEEEKTSANPETLLGEMEAKTRELIARRTTPLLEYIKNRKLEKQRIREEKREERRRRELEKKRLREEEKRRRREEERCKKKETDKQKKIAEKEVRIKLLKKPEKGEEPTTEKPKERGEEIDTGGGKQESCAPGAVVKARPMEGSLEEPQETSHSGSDKEHRDVERSQEQESEAQRYHVDDGRRHRAHHEPERLSRRSEDEQRWGKGPGQDRGKKGSQDSGAPGEAMERLGRAQRCDDSPAPRKERLANKDRPALQLYDPGARFRARECGGNRRICKAEGSGTGPEKREEAE
notes: UPF3A, human, endogenous in HeLa Tet-off cells; source: endogenous, 3B^KO#3 HeLa Tet-off lysate
Consider B3, for which the “fold increase of co-IP upon overexpression of wild-type CASC3” value in experiment [3] is 3 fold.

B4: UPF3B (endogenous, HeLa Tet‐off) (natural protein, human (endogenous in HeLa), UniProt Q9BZI7 1-483, looked up)
chain: MKEEKEHRPKEKRVTLLTPAGATGSGGGTSGDSSKGEDKQDRNKEKKEALSKVVIRRLPPTLTKEQLQEHLQPMPEHDYFEFFSNDTSLYPHMYARAYINFKNQEDIILFRDRFDGYVFLDNKGQEYPAIVEFAPFQKAAKKKTKKRDTKVGTIDDDPEYRKFLESYATDNEKMTSTPETLLEEIEAKNRELIAKKTTPLLSFLKNKQRMREEKREERRRREIERKRQREEERRKWKEEEKRKRKDIEKLKKIDRIPERDKLKDEPKIKVHRFLLQAVNQKNLLKKPEKGDEKELDKREKAKKLDKENLSDERASGQSCTLPKRSDSELKDEKPKRPEDESGRDYREREREYERDQERILRERERLKRQEEERRRQKERYEKEKTFKRKEEEMKKEKDTLRDKGKKAESTESIGSSEKTEKKEEVVKRDRIRNKDRPAMQLYQPGARSRNRLCPPDDSTKSGDSAAERKQESGISHRKEGGEE
notes: UPF3B, human, endogenous in HeLa Tet-off cells; source: endogenous, HeLa Tet-off lysate
B4: the “fold increase of co-IP upon overexpression of wild-type CASC3” value in experiment [3] was 2.6 fold.
